In patent US11814447B2, “Peptide ligands for binding to EphA2” (BICYCLERD LIMITED, priority 2018, dated 2023):
Starred links: 1 amine or outer side, 2 acyl side, 3 side chain; linkers in the order of their positions; H or OH if unused. Positions of bridges follow the written chain, without caps; N, C: chain ends. Non-standard residues stand in square brackets, D forms with d. Primed or numbered codes have the meaning given here. No end group written: not given here. TBMB′ = 1,3,5-tris(bromomethyl)benzene, 1,3,5-tris(methylene)benzene core, three thioethers to Cys; 4BenzylPro = 4-benzyl-pyrrolidine-2-carboxylic acid; Dip = N[C@H](C(=O)O)C(c1ccccc1)c1ccccc1; 1Nal = N[C@@H](Cc1cccc2ccccc12)C(=O)O; TBMB = c1c(C[*:1])cc(C[*:3])cc1C[*:2]; Ala(cPr) = N[C@@H](CC1CC1)C(=O)O; hArg = N=C(N)NCCCC[C@H](N)C(=O)O; Gly(cPr) = N[C@H](C(=O)O)C1CC1; Cba = N[C@@H](CC1CCC1)C(=O)O; Tle = CC(C)(C)[C@H](N)C(=O)O; Ac5c = NC1(C(=O)O)CCCC1; Ac4c = NC1(C(=O)O)CCC1; Ac3c = NC1(C(=O)O)CC1; Aib = CC(C)(N)C(=O)O; Sar = CNCC(=O)O

Molecular target: T1, Human EphA2 (Ecto) (Human, UniProt P29317 24-537)
T1 construct: extracellular domain
T1 sequence (P29317 24-537): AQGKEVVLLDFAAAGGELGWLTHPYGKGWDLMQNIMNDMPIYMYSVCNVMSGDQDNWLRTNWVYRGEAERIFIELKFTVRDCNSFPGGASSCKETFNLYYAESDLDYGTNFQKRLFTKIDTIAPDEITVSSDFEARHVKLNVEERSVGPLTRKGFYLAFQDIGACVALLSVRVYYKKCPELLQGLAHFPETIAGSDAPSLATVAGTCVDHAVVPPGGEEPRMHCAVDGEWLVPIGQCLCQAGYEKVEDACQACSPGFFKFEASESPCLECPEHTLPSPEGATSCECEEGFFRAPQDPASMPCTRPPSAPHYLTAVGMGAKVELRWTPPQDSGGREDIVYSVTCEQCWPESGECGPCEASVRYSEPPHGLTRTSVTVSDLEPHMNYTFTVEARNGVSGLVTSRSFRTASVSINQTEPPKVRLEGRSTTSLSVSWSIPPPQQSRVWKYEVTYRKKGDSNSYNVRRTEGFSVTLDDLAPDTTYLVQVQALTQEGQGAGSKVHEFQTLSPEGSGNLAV
Assay: FP competition, tracer Compound 18
Description: Peptides without a fluorescent tag were tested in competition with a peptide with a fluorescent tag and a known Kd (Table 2). Peptides were diluted to an appropriate concentration in assay buffer as described in the direct binding assay with a maximum of 5% DMSO, then serially diluted 1 in 2. […] Measurements were conducted as for the direct binding assay, however the gain was determined prior to the first measurement. Data analysis was in Systat Sigmaplot version 12.0 where the mP values were fit to a user defined cubic equation to generate a Ki value: […]

Binder | Ki [nM]
Ac-[Sar][Sar]A[dD]VTC[Ac4c]WGPFWCPVNRPGC (linker 7-14-21 via TBMB′) [Bicycle Compound 166] | 76.7
Ac-[Sar][Sar]AHDVPCPWGPFWCPVNRPGC (linker 8-15-22 via TBMB) [Bicycle Compound 193] | 0.59
[Sar][Sar]A[dA]DVPCPWGPFWCPVNRPGC (linker 8-15-22 via TBMB) [Bicycle Compound 199] | 3.35
[Sar][Sar]AHD[dA]PCPWGPFWCPVNRPGC (linker 8-15-22 via TBMB) [Bicycle Compound 215] | 26
[Sar][Sar]AHDAPCPWGPFWCPVNRPGC (linker 8-15-22 via TBMB) [Bicycle Compound 214] | 22.5
[Sar][Sar]AH[dA]VPCPWGPFWCPVNRPGC (linker 8-15-22 via TBMB) [Bicycle Compound 206] | 8.3
[Sar][Sar]AHDV[dA]CPWGPFWCPVNRPGC (linker 8-15-22 via TBMB) [Bicycle Compound 219] | 15
Ac-[Sar][Sar]A[dD]DVPCPWGPFWCPVNRPGC (linker 8-15-22 via TBMB) [Bicycle Compound 200] | 4.1
Ac-[Sar][Sar]A[dD]VTCPWGP[hArg]WCPVNRPGC (linker 7-14-21 via TBMB′) [Bicycle Compound 171] | 4.88
Ac-[Sar][Sar]A[dD]VTCPWG[Aib]F[1Nal]CPVNR[Aib]GC (linker 7-14-21 via TBMB′) [Bicycle Compound 179] | 2.94
AHDVPCP[1Nal]G[Aib]FWCP[Tle]N[hArg]PGC (linker 6-13-20 via TBMB) [Bicycle Compound 191] | 3.1
Ac-[Sar][Sar]A[dD]VTCPWG[Aib]FWCP[Tle]NR[Aib]GC (linker 7-14-21 via TBMB′) [Bicycle Compound 180] | 3.83
ADVHCP[Dip]GPFWCPVNRPGCA (linker 5-12-19 via TBMB) [Bicycle Compound 149] | 52.8
Ac-[Sar][Sar]ADVTCPWGPFWCPVNRPGC (linker 7-14-21 via TBMB′) [Bicycle Compound 157] | 0.91
Ac-[Sar][Sar]A[dD]VTCPWGPFWCPLNRPGC (linker 7-14-21 via TBMB′) [Bicycle Compound 174] | 9.1
Ac-[Sar][Sar]A[dD]VTCPWGPNWCPVNRPGC (linker 7-14-21 via TBMB′) [Bicycle Compound 172] | 3.96
Ac-[Sar][Sar]A[dD][Ala(cPr)]TCPWGPFWCPVNRPGC (linker 7-14-21 via TBMB′) [Bicycle Compound 161] | 4.44
Ac-[Sar][Sar]A[dD]VTCPWGPFWCPVNR[Aib][dD]C (linker 7-14-21 via TBMB′) [Bicycle Compound 177] | 4.43
Ac-[Sar][Sar]A[dD]VTC[Ac5c]WGPFWCPVNRPGC (linker 7-14-21 via TBMB′) [Bicycle Compound 167] | 138
Ac-[Sar][Sar]A[dD]VTCP[1Nal]G[Aib]FWCPVNR[Aib]GC (linker 7-14-21 via TBMB′) [Bicycle Compound 178] | 2.4
Ac-[Sar][Sar]A[dD]VTCP[1Nal]G[Aib]F[1Nal]CPVNR[Aib]GC (linker 7-14-21 via TBMB′) [Bicycle Compound 181] | 1.37
Ac-[Sar][Sar]A[dD]VTC[4BenzylPro]WGPFWCPVNRPGC (linker 7-14-21 via TBMB′) [Bicycle Compound 168] | 5.03
Ac-[Sar][Sar]A[dD]VTC[Ac3c]WGPFWCPVNRPGC (linker 7-14-21 via TBMB′) [Bicycle Compound 165] | 185

More lines, now with the values ahead:

Ki [nM] | Binder
0.7 | AHDVPCP[1Nal]GPFWCP[Tle]NRPGC (linker 6-13-20 via TBMB) [Bicycle Compound 190]
1.01 | Ac-[Sar][Sar]AADVPCPWGPFWCPVNRPGC (linker 8-15-22 via TBMB) [Bicycle Compound 195]
1.3 | [Sar][Sar]AHEVPCPWGPFWCPVNRPGC (linker 8-15-22 via TBMB) [Bicycle Compound 207]
2 | [Sar][Sar]AH[dE]VPCPWGPFWCPVNRPGC (linker 8-15-22 via TBMB) [Bicycle Compound 208]
1.27 | [Sar][Sar]AHDVACPWGPFWCPVNRPGC (linker 8-15-22 via TBMB) [Bicycle Compound 218]
1.8 | [Sar][Sar]AHAVPCPWGPFWCPVNRPGC (linker 8-15-22 via TBMB) [Bicycle Compound 205]
0.32 | AHDVPCP[1Nal]GPFWCPVNRPGCA (linker 6-13-20 via TBMB′) [Bicycle Compound 187]
2.25 | Ac-[Sar][Sar]AD[Tle]TCPWGPFWCPVNRPGC (linker 7-14-21 via TBMB′) [Bicycle Compound 164]
0.51 | ADVHCPWG[Aib]FWCPVNRPGCA (linker 5-12-19 via TBMB′) [Bicycle Compound 153]
1.24 | Ac-[Sar][Sar]H[dD]VPCPWG[Aib]F[1Nal]CPVNR[Aib]GC (linker 7-14-21 via TBMB) [Bicycle Compound 268]
0.12 | ADVHCP[1Nal]GPFWCPVNRPGCA (linker 5-12-19 via TBMB) [Bicycle Compound 150]
1.52 | Ac-[Sar][Sar]H[dD]VPCPWG[Aib]FWCP[Tle]NR[Aib]GC (linker 7-14-21 via TBMB) [Bicycle Compound 270]
1.75 | AHDVPCP[1Nal]G[Aib]FWCP[Tle]NR[Aib]GC (linker 6-13-20 via TBMB) [Bicycle Compound 192]
1.2 | Ac-[Sar][Sar]ADVHCPWGPFWCPVNRPGC (linker 7-14-21 via TBMB) [Bicycle Compound 148]
1.09 | Ac-[Sar][Sar][dH]DVPCPWGPFWCPVNRPGC (linker 7-14-21 via TBMB) [Bicycle Compound 224]
2.85 | Ac-[Sar][Sar]A[dD][dD]TCPWGPFWCPVNRPGC (linker 7-14-21 via TBMB′) [Bicycle Compound 159]
1.34 | [dD]VTCP[1Nal]G[Aib]F[1Nal]CP[Tle]NR[Aib]GC (linker 4-11-18 via TBMB′) [Bicycle Compound 186]
1.3 | AHDVPCPWGPF[1Nal]CPVNRPGC (linker 6-13-20 via TBMB) [Bicycle Compound 189]
2.17 | [dD]VTCPWGPFWCPVNRPGC (linker 4-11-18 via TBMB) [Bicycle Compound 185]
2.6 | Ac-[Sar][Sar]A[dD][Cba]TCPWGPFWCPVNRPGC (linker 7-14-21 via TBMB′) [Bicycle Compound 160]
1.45 | AHDVPCP[1Nal]GPFWCPVNRPGC (linker 6-13-20 via TBMB) [Bicycle Compound 188]
1.6 | Ac-[Sar][Sar]H[dD]VPCP[1Nal]G[Aib]FWCPVNR[Aib]GC (linker 7-14-21 via TBMB) [Bicycle Compound 266]
0.63 | Ac-[Sar][Sar]H[dD]VPCP[1Nal]G[Aib]F[1Nal]CPVNR[Aib]GC (linker 7-14-21 via TBMB) [Bicycle Compound 261]
0.6 | Ac-[Sar][Sar]A[dD]VTCP[1Nal]GPFWCPVNRPGC (linker 7-14-21 via TBMB′) [Bicycle Compound 170]
2.55 | Ac-[Sar][Sar]A[dD][Gly(cPr)]TCPWGPFWCPVNRPGC (linker 7-14-21 via TBMB′) [Bicycle Compound 162]
